The Immune Epitope Database (IEDB)

Experiments:
HLA-B*39:01 = assay: IEDB peptide-MHC binding, purified MHC/competitive/fluorescence; filed as Kd, often an IC50 or EC50 that approximates it; ≥ and ≤ were set here for values at or beyond the usual limits of such assays
HLA-A*26:01 [1] = assay: as above
HLA-B*51:01 = assay: as above
HLA-B*27:03 = assay: as above
HLA-A*03:01 [2] = assay: as above
HLA-A*02:03 = assay: as above
HLA-B*57:01 = assay: as above
HLA-A*23:01 = assay: as above
HLA-B*15:01 [3] = assay: as above
HLA-B*46:01 [4] = assay: as above
HLA-A*24:03 = assay: as above
HLA-A*68:02 = assay: as above
HLA-A*69:01 [5] = assay: as above
HLA-B*15:17 = assay: as above
HLA-A*02:01 [6] = assay: as above
HLA-A*29:02 = assay: as above
HLA-A*02:12 = assay: as above
HLA-A*02:16 = assay: as above
HLA-B*18:01 = assay: as above
HLA-A*02:11 = assay: as above
HLA-A*02:19 = assay: as above
HLA-B*40:01 = assay: IEDB peptide-MHC binding, purified MHC/direct/fluorescence; filed as Kd, often an IC50 or EC50 that approximates it; ≥ and ≤ were set here for values at or beyond the usual limits of such assays
HLA-A*26:01 [7] = assay: as above; details: source organism: Influenza A virus (A/shorebird/Delaware/141/2002(H9N9))
HLA-B*08:01 = assay: as above
HLA-B*58:01 = assay: as above
HLA-A*03:01 [8] = assay: as above
HLA-B*15:01 [9] = assay: as above
HLA-A*11:01 = assay: as above
HLA-B*27:05 = assay: as above
HLA-A*69:01 [10] = assay: as above
HLA-A*24:02 = assay: as above
HLA-A*31:01 [11] = assay: as above; details: source organism: Influenza A virus (A/turkey/Minnesota/511/1978(H9N2))
HLA-A*02:01 [12] = assay: as above
HLA-B*07:02 = assay: as above
HLA-A*01:01 = assay: as above
HLA-B*44:02 = assay: as above
HLA-B*08:02 = assay: as above; details: source organism: Influenza A virus(A/swine/Shandong/fNY/2003(H9N2))
HLA-B*46:01 [13] = assay: as above
HLA-A*31:01 [14] = assay: IEDB peptide-MHC binding, purified MHC/competitive/fluorescence; filed as Kd, often an IC50 or EC50 that approximates it; ≥ and ≤ were set here for values at or beyond the usual limits of such assays; details: source organism: Entamoeba histolytica HM-1:IMSS
[15] = source organism: Bacillus cereus G9241
[16] = source organism: Influenza A virus (A/turkey/Minnesota/511/1978(H9N2))
[17] = source organism: Influenza A virus (A/Puerto Rico/8/34/Mount Sinai(H1N1))
[18] = source organism: Influenza A virus (A/egret/Hong Kong/757.3/2002(H5N1))
[19] = source organism: Giardia lamblia ATCC 50803
[20] = source organism: Escherichia coli O157:H7
[21] = source organism: Entamoeba histolytica HM-1:IMSS
[22] = source organism: Influenza A virus (A/red knot/Delaware/2561/1987(H10N5))

In the case of DEEAINLFH, the Kd (HLA-B*39:01; [15]) is reported as no less than 20 µM, the Kd (HLA-A*26:01 [1]; [15]) is reported as no less than 20 µM and the Kd (HLA-B*51:01; [15]) is reported as no less than 20 µM. For the same sequence, the Kd (HLA-B*27:03; [15]) was no less than 20 µM, the Kd (HLA-A*03:01 [2]; [15]) was no less than 20 µM and the Kd (HLA-A*02:03; [15]) was no less than 20 µM. For the same sequence, the Kd (HLA-B*57:01; [15]) was no less than 20 µM, the Kd (HLA-A*23:01; [15]) was no less than 20 µM and the Kd (HLA-B*15:01 [3]; [15]) was no less than 20 µM. For the same sequence, the Kd (HLA-B*46:01 [4]; [15]) was no less than 20 µM, the Kd (HLA-A*24:03; [15]) was no less than 20 µM and the Kd (HLA-A*68:02; [15]) was no less than 20 µM. The Kd (HLA-A*69:01 [5]; [15]) was no less than 20 µM, the Kd (HLA-B*15:17; [15]) was no less than 20 µM and the Kd (HLA-A*02:01 [6]; [15]) was no less than 20 µM. It also gave a Kd (HLA-A*29:02; [15]) of no less than 20 µM, a Kd (HLA-A*02:12; [15]) of no less than 20 µM and a Kd (HLA-A*02:16; [15]) of no less than 20 µM. For the same sequence, the Kd (HLA-B*18:01; [15]) was 0.692 µM, the Kd (HLA-A*02:11; [15]) was no less than 20 µM and the Kd (HLA-A*02:19; [15]) was no less than 20 µM.
With DLLENLQAY the Kd (HLA-B*40:01; [16]) was no less than 20 µM, the Kd (HLA-A*26:01 [7]) was 0.115 µM and the Kd (HLA-B*08:01; [16]) was no less than 20 µM. It also gave a Kd (HLA-B*58:01; [16]) of no less than 20 µM, a Kd (HLA-A*03:01 [8]; [16]) of no less than 20 µM and a Kd (HLA-B*15:01 [9]; [17]) of 2.69 µM. It also gave a Kd (HLA-A*11:01; [16]) of no less than 20 µM, a Kd (HLA-B*27:05; [16]) of no less than 20 µM and a Kd (HLA-A*69:01 [10]; [16]) of no less than 20 µM. The Kd (HLA-A*24:02; [16]) was no less than 20 µM, the Kd (HLA-A*31:01 [11]) was no less than 20 µM and the Kd (HLA-A*02:01 [12]; [16]) was no less than 20 µM. The Kd (HLA-B*07:02; [16]) was no less than 20 µM, the Kd (HLA-A*01:01; [16]) was no less than 20 µM and the Kd (HLA-B*44:02; [16]) was no less than 20 µM.
Sequence EEFTMVGRR has a Kd (HLA-B*08:01; [18]) of no less than 20 µM, a Kd (HLA-B*58:01; [18]) of no less than 20 µM and a Kd (HLA-A*03:01 [8]; [17]) of 1.01 µM. For the same sequence, the Kd (HLA-B*08:02) was no less than 20 µM, the Kd (HLA-B*15:01 [9]; [18]) was no less than 20 µM and the Kd (HLA-B*27:05; [18]) was no less than 20 µM. For the same sequence, the Kd (HLA-B*46:01 [13]; [18]) was no less than 20 µM, the Kd (HLA-A*69:01 [10]; [18]) was no less than 20 µM and the Kd (HLA-A*24:02; [18]) was no less than 20 µM. The Kd (HLA-B*07:02; [18]) was no less than 20 µM, the Kd (HLA-A*01:01; [18]) was no less than 20 µM and the Kd (HLA-B*44:02; [18]) was no less than 20 µM.
With LLDDGWAGE the Kd (HLA-B*39:01; [19]) was no less than 20 µM, the Kd (HLA-A*26:01 [1]; [19]) was no less than 20 µM and the Kd (HLA-B*51:01; [19]) was no less than 20 µM. It also gave a Kd (HLA-B*27:03; [19]) of no less than 20 µM, a Kd (HLA-A*03:01 [2]; [19]) of no less than 20 µM and a Kd (HLA-A*02:03; [19]) of no less than 20 µM. For the same sequence, the Kd (HLA-B*57:01; [19]) was no less than 20 µM, the Kd (HLA-A*23:01; [19]) was no less than 20 µM and the Kd (HLA-B*15:01 [3]; [19]) was no less than 20 µM. For the same sequence, the Kd (HLA-B*46:01 [4]; [19]) was no less than 20 µM, the Kd (HLA-A*24:03; [19]) was no less than 20 µM and the Kd (HLA-A*68:02; [19]) was no less than 20 µM. For the same sequence, the Kd (HLA-A*69:01 [5]; [19]) was no less than 20 µM, the Kd (HLA-B*15:17; [19]) was no less than 20 µM and the Kd (HLA-A*02:01 [6]; [19]) was no less than 20 µM. The Kd (HLA-A*29:02; [19]) was no less than 20 µM, the Kd (HLA-A*02:12; [19]) was 6 µM and the Kd (HLA-B*18:01; [19]) was no less than 20 µM. It also gave a Kd (HLA-A*02:11; [19]) of no less than 20 µM and a Kd (HLA-A*02:19; [19]) of no less than 20 µM.
PLKVKDIPF was tested, and the Kd (HLA-B*40:01; [20]) was no less than 20 µM, the Kd (HLA-B*58:01; [20]) was no less than 20 µM and the Kd (HLA-A*03:01 [8]; [20]) was no less than 20 µM. For the same sequence, the Kd (HLA-B*15:01 [9]; [20]) was 0.196 µM, the Kd (HLA-A*11:01; [20]) was no less than 20 µM and the Kd (HLA-B*27:05; [20]) was no less than 20 µM. For the same sequence, the Kd (HLA-B*46:01 [13]; [20]) was no less than 20 µM, the Kd (HLA-A*24:02; [20]) was no less than 20 µM and the Kd (HLA-A*02:01 [12]; [20]) was no less than 20 µM. The Kd (HLA-B*07:02; [20]) was no less than 20 µM, the Kd (HLA-A*01:01; [20]) was no less than 20 µM and the Kd (HLA-B*44:02; [20]) was no less than 20 µM.
RTFDRFFEE showed a Kd (HLA-B*39:01; [21]) of no less than 20 µM, a Kd (HLA-A*26:01 [1]; [21]) of no less than 20 µM and a Kd (HLA-B*51:01; [21]) of no less than 20 µM. The Kd (HLA-B*27:03; [21]) was no less than 20 µM, the Kd (HLA-A*03:01 [2]; [21]) was no less than 20 µM and the Kd (HLA-A*02:03; [21]) was no less than 20 µM. It also gave a Kd (HLA-B*57:01; [21]) of no less than 20 µM, a Kd (HLA-A*23:01; [21]) of no less than 20 µM and a Kd (HLA-B*15:01 [3]; [21]) of no less than 20 µM. The Kd (HLA-B*46:01 [4]; [21]) was no less than 20 µM, the Kd (HLA-A*24:03; [21]) was no less than 20 µM and the Kd (HLA-A*68:02; [21]) was no less than 20 µM. The Kd (HLA-A*69:01 [5]; [21]) was no less than 20 µM, the Kd (HLA-A*31:01 [14]) was 0.318 µM and the Kd (HLA-A*02:01 [6]; [21]) was no less than 20 µM. For the same sequence, the Kd (HLA-A*29:02; [21]) was no less than 20 µM, the Kd (HLA-A*02:12; [21]) was no less than 20 µM and the Kd (HLA-A*02:16; [21]) was no less than 20 µM. It also gave a Kd (HLA-B*18:01; [21]) of no less than 20 µM, a Kd (HLA-A*02:11; [21]) of no less than 20 µM and a Kd (HLA-A*02:19; [21]) of no less than 20 µM.
Sequence VMTDGPANK has a Kd (HLA-B*39:01; [22]) of no less than 20 µM, a Kd (HLA-A*26:01 [1]; [22]) of no less than 20 µM and a Kd (HLA-B*51:01; [22]) of no less than 20 µM. It also gave a Kd (HLA-B*27:03; [22]) of no less than 20 µM, a Kd (HLA-A*02:03; [22]) of no less than 20 µM and a Kd (HLA-B*57:01; [22]) of no less than 20 µM. It also gave a Kd (HLA-A*23:01; [22]) of no less than 20 µM, a Kd (HLA-B*15:01 [3]; [22]) of no less than 20 µM and a Kd (HLA-B*46:01 [4]; [22]) of no less than 20 µM. The Kd (HLA-A*24:03; [22]) was no less than 20 µM, the Kd (HLA-B*15:17; [22]) was no less than 20 µM and the Kd (HLA-A*02:01 [6]; [22]) was no less than 20 µM. For the same sequence, the Kd (HLA-A*29:02; [22]) was no less than 20 µM, the Kd (HLA-A*02:12; [22]) was no less than 20 µM and the Kd (HLA-B*18:01; [22]) was no less than 20 µM. It also gave a Kd (HLA-A*02:11; [22]) of 0.199 µM and a Kd (HLA-A*02:19; [22]) of no less than 20 µM.
